This note sets out measurements from patent JP2022142155A (dated 2022).

One may read the Kd as a measure of binding affinity in units of concentration. A low value points to higher affinity.

B1: 配列番号:38により表されるアミノ酸配列を含む抗HSA抗体 (VHH)
VHH: QVQLVESGGGLVQTGGSLRLSCAASGRIVTVAAMGWFRQAPGKEREFVASISWSGRSRSYADSVKGRFTISRDNAKNTAYLQMSSLKPEDTGVYYCALGGNSYSSDYARYDYWGQGTQVTVSS
notes: Expressed in E. coli from pRA2(+); also called H10A; H10A; not shown: C-terminal His tag from vector pRA2(+) (Ni-NTA purification, anti-His detection)
B2: 配列番号:36により表されるアミノ酸配列を含む抗HSA抗体 (VHH)
VHH: EVQLVESGGGFVQPGGSLRLSCVASGFTFERFDMGWVRQAPGKSLEWVSRFNSDDGRKSYADSVKGRFAISRDNAENTLYLQMNNLIPEDTAMYYCVKCQAYTSCTDAEDRGQGTQVTVSS
notes: Expressed in E. coli BL21(DE3) pLysS from pRA2(+) behind a vector-encoded leader; also called H01A; H01A; not shown: C-terminal His tag from vector pRA2(+) (Ni-NTA purification, anti-His detection)
B3: 配列番号:37により表されるアミノ酸配列を含む抗HSA抗体 (VHH)
VHH: EVQLVESGGGLVHPGGSLRLSCVASGSDVSSDTMGWFRRAPGKQRELVAAIAWGGSTHYAESVKGRFTISRDNAKNTVYLQLSNLKPEDTAVYLCNTRNYWGQGTQVTVSS
notes: Expressed in E. coli from pRA2(+); also called H08A; H08A; not shown: C-terminal His tag from vector pRA2(+) (Ni-NTA purification, anti-His detection)
B4: 配列番号:39により表されるアミノ酸配列を含む抗HSA抗体 (VHH)
VHH: QLQLVESGGGLVQAGGSLRLSCAASGRTFRFSAMGWFRQAPGKEREFAAAISWTGGTTAYAESVKGRFIISRDNAKNTVYLQMNSLKPEDTAVYYCAAGPIPSPASRYDDWGQGTQVTVSS
notes: Expressed in E. coli from pRA2(+); also called H14A; H14A; not shown: C-terminal His tag from vector pRA2(+) (Ni-NTA purification, anti-His detection)
B5: 配列番号:40により表されるアミノ酸配列を含む抗HSA抗体 (VHH)
VHH: QVQLVESGGGLVQAGKSLRLSCTASGSIPSIGVTGWHRQAPGKQRELVATISQGGHINYFESVKGRFTISRDNAKNTVYLQMNSLKPEDTGVYYCNAFWLPLRLNDYWGQGTQVTVSS
notes: Expressed in E. coli from pRA2(+); also called H32A; H32A; not shown: C-terminal His tag from vector pRA2(+) (Ni-NTA purification, anti-His detection)

T1 sequence (P02768 25-609 limits assumed): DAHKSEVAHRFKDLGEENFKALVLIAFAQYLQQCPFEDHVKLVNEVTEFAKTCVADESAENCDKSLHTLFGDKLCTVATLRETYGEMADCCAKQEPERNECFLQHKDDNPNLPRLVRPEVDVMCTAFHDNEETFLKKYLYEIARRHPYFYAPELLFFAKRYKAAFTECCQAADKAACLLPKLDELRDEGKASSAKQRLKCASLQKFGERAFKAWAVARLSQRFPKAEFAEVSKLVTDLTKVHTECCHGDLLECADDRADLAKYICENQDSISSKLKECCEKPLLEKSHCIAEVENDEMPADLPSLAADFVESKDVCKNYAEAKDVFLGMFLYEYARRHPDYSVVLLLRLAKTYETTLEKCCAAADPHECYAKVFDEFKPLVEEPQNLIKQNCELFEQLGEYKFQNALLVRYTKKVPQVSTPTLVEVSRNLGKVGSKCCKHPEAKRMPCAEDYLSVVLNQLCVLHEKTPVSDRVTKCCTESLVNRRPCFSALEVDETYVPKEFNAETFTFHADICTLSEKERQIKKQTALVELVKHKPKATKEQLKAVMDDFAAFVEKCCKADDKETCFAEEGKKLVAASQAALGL

This assay has as its target T1, ヒト血清アルブミン (human, UniProt P02768 25-609).
T1 construct: also called HSA; HSA
The experiment in a line: SPR (Biacore T200), HSA amine-coupled on CM5 chip, VHH as analyte. On the technique in general: In SPR one partner is held on a chip, and binding of the other changes the refractive index at the surface.
Molecule B1 came in with a dissociation constant (Kd) of 124 nM.

The molecule B2 came in with a Kd of 22.9 nM. This Kd lies about 5.4-fold lower than the previous one.

As for B3, the Kd was found to be 62.2 nM.

For B4, the Kd was 296 nM.

B5: the equilibrium dissociation constant (Kd) was determined as 0.077 nM.
